Tests used:
[1] = molecular target: T1, alpha-synuclein monomer (human, UniProt P37840 1-140); assay: DNase I footprinting
[2] = molecular target: T1, alpha-synuclein monomer; assay: EIS
[3] = molecular target: beta-synuclein (UniProt Q16143 1-134); assay: MST
[4] = molecular target: gamma-synuclein (UniProt O76070 1-127); assay: MST
gamma-synuclein, sequence (O76070 whole entry): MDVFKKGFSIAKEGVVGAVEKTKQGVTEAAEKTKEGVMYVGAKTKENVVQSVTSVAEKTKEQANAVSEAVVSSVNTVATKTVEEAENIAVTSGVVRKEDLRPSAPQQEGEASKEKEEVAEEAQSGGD

beta-synuclein, sequence (Q16143 whole entry): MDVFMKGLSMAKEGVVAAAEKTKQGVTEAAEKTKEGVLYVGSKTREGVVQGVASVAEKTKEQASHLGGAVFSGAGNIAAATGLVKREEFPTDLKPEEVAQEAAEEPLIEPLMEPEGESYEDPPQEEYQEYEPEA

B1: a-syn-1 (5'-fluorescein) (ssDNA)
DNA: ATAGTCCCATCATTCATTGTAAGGAAACGCTACGGGGTGGGTACGGCAAGATATTAGCAAGTGTCA
Which Kd [1] does the source give for B1 here?
Its Kd is 28 ± 14 nM.

B2: a-syn-1 (thiol, on gold electrode) (ssDNA)
DNA: ATAGTCCCATCATTCATTGTAAGGAAACGCTACGGGGTGGGTACGGCAAGATATTAGCAAGTGTCA
modifications: thiol (end not stated), immobilized on gold
How did the Kd [2] turn out when B2 was run?
The Kd was 70 ± 3 nM.

B3: a-syn-1 (5'-Cy5) (ssDNA)
DNA: ATAGTCCCATCATTCATTGTAAGGAAACGCTACGGGGTGGGTACGGCAAGATATTAGCAAGTGTCA
Which results are given for B3?
binding result [3]: no binding; binding result [4]: no binding

— paper PMC11456556
